Experiments:
Test in all cases: cell-based or functional assay
[1] = biological target: human mature BMP7 protein variant F9 (SEQ ID NO: 8) (human) (UniProt P18075)
[2] = biological target: human pro-BMP7 protein variant F9 (human) (UniProt P18075)
[3] = biological target: wild type human mature BMP7 (SEQ ID NO: 2) (human) (UniProt P18075)
[4] = biological target: wild type human pro-BMP7 (human) (UniProt P18075)
wild type human pro-BMP7 (human), sequence (P18075 293-431, chain 1 of 2): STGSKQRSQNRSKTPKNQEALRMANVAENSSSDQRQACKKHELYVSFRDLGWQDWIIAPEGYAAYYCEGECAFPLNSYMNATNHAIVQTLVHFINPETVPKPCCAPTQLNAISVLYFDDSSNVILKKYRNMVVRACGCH
wild type human pro-BMP7 (human), sequence (P18075 other isoform, or with tags, fused parts or gaps, chain 2 of 2): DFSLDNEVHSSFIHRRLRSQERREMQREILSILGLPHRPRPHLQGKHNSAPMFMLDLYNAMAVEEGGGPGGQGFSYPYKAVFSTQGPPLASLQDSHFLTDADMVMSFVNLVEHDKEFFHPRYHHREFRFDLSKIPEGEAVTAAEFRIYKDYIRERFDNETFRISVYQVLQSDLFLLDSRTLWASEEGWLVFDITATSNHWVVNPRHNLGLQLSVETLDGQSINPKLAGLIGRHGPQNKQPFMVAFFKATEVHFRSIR

wild type human mature BMP7 (SEQ ID NO: 2) (human), sequence (P18075 293-431): as the sequence (P18075 293-431, chain 1 of 2) above
human mature BMP7 protein variant F9 (SEQ ID NO: 8) (human), sequence (P18075 other isoform, or with tags, fused parts or gaps mutant): as the sequence (P18075 293-431, chain 1 of 2) above, with Y65G, I86L, F93V, N110G, Y128W counted along it
human pro-BMP7 protein variant F9 (human), sequence (P18075 other isoform, or with tags, fused parts or gaps mutant, chain 1 of 2): as the sequence (P18075 293-431, chain 1 of 2) above, with Y65G, I86L, F93V, N110G, Y128W counted along it
human pro-BMP7 protein variant F9 (human), sequence (P18075 other isoform, or with tags, fused parts or gaps mutant, chain 2 of 2): as the sequence (P18075 other isoform, or with tags, fused parts or gaps, chain 2 of 2) above
Follistatin, sequence (P19883 30-344): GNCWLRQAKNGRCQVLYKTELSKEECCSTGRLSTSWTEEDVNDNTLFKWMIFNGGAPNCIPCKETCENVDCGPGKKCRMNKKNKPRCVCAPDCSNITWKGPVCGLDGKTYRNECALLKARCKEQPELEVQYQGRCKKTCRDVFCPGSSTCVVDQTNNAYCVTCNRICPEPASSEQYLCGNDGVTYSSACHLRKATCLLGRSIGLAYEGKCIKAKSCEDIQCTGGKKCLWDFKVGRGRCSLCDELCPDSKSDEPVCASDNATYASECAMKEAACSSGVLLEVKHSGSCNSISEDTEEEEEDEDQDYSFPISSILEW

Row | Substance | % inhibition, 0.01X molar excess of inhibitor (hepcidin promoter luciferase, Hep3B2 HepPro luc cells) [1] [%] | % inhibition, 0.1X molar excess of inhibitor (hepcidin promoter luciferase, Hep3B2 HepPro luc cells) [1] [%] | % inhibition, 1X molar excess of inhibitor (hepcidin promoter luciferase, Hep3B2 HepPro luc cells) [1] [%] | % inhibition, 10X molar excess of inhibitor (hepcidin promoter luciferase, Hep3B2 HepPro luc cells) [1] [%] | % inhibition, 0.1X molar excess of inhibitor (hepcidin promoter luciferase, Hep3B2 HepPro luc cells) [2] [%] | % inhibition, 1X molar excess of inhibitor (hepcidin promoter luciferase, Hep3B2 HepPro luc cells) [2] [%] | % inhibition, 10X molar excess of inhibitor (hepcidin promoter luciferase, Hep3B2 HepPro luc cells) [2] [%] | % inhibition, 100X molar excess of inhibitor (hepcidin promoter luciferase, Hep3B2 HepPro luc cells) [2] [%] | % inhibition, 0.1X molar excess of inhibitor (hepcidin promoter luciferase, Hep3B2 HepPro luc cells) [3] [%] | % inhibition, 1X molar excess of inhibitor (hepcidin promoter luciferase, Hep3B2 HepPro luc cells) [3] [%] | % inhibition, 10X molar excess of inhibitor (hepcidin promoter luciferase, Hep3B2 HepPro luc cells) [3] [%] | % inhibition, 100X molar excess of inhibitor (hepcidin promoter luciferase, Hep3B2 HepPro luc cells) [3] [%] | % inhibition, 0.1X molar excess of inhibitor (hepcidin promoter luciferase, Hep3B2 HepPro luc cells) [4] [%] | % inhibition, 1X molar excess of inhibitor (hepcidin promoter luciferase, Hep3B2 HepPro luc cells) [4] [%] | % inhibition, 10X molar excess of inhibitor (hepcidin promoter luciferase, Hep3B2 HepPro luc cells) [4] [%] | % inhibition, 100X molar excess of inhibitor (hepcidin promoter luciferase, Hep3B2 HepPro luc cells) [4] [%]
1 | Chordin | 3.7 | 6.8 | 5.2 | 5.6 | -5.9 | -5.3 | -1.3 | -17.7 | -13.1 | -9.2 | 21.3 | 70.9 | -15.1 | -2.2 | 18.9 | 76.5
2 | Chordin-like 2 | -1.5 | -3.2 | -1 | 9 | 3.5 | 2.4 | 8.8 | 24.9 | -13.7 | 49 | 69.5 | 71.9 | 8.9 | 55.9 | 87.5 | 88.2
3 | Follistatin | 3.9 | 10.6 | 10 | 23.8 | -2.6 | -4.3 | 11.7 | 22.5 | -16.6 | -11.9 | 21.1 | 54.7 | -10.4 | 5.9 | 29.5 | 79.8

Source: patent US20210115100A1
